The record followed here is patent US20100261245.

The test system of the series is T1, VEGF, P15692-4.
T1 sequence: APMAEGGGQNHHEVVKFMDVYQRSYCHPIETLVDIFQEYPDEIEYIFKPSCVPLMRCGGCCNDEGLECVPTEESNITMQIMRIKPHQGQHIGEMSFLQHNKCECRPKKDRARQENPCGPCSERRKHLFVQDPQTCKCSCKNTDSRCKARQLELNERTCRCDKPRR
Description: SPR. The conditions noted are these: BIAcore 2000, VEGF immobilized, aptamer 30-500 nM. A general note: In SPR one partner is held on a chip, and binding of the other changes the refractive index at the surface.

The Kd is the concentration at which binding is half-saturated. Read a low Kd as tighter binding. Consider “AUGCAGUUUGAGAAGUCGCGCAU [PEGylated anti-VEGF 2'-OMe-RNA aptamer]”, for which the Kd (2'-OMe at all positions as printed, 5'-PEG 20 kDa (mPEG-SPA via 5' amine), PBS pH 7.4) was determined as 87 nM. Sequence “AUGCAGUUUGAGAAGUCGCGCAU [anti-VEGF 2'-OMe-RNA aptamer]” displayed a Kd (2'-OMe at all positions as printed (Am, Um, Gm, Cm), 5' terminal amine group stated for the PEGylation precursor, PBS pH 7.4 stated for the PEGylated aptamer) of 1.87 nM.
